# Laboratory results as given in publication PMC9512828.
# B1: PTH1R-WT coupled to a C-terminal HaloTag (parathyroid hormone 1 receptor) [not stated] / β-arrestin2-dFLR (finger-loop region Y64 to K78 deleted) C-terminally fused to Nanoluciferase [not stated] (parent)
# chain 1: MGEKPGTRVFKKSSPNCKLTVYLGKRDFVDHLDKVDPVDGVVLVDPDYLKDRKVFVTLTCAFRDLFIANYQAFPPTPNPPRPPTRLQERLLRKLGQHAHPFFFTIPQNLPCSVTLQPGPEDTGKACGVDFEIRAFCAKSLEEKSHKRNSVRLVIRKVQFAPEKPGPQPSAETTRHFLMSDRSLHLEASLDKELYYHGEPLNVNVHVTNNSTKTVKKIKVSVRQYADICLFSTAQYKCPVAQVEQDDQVSPSSTFCKVYTITPLLSNNREKRGLALDGKLKHEDTNLASSTIVKEGANKEVLGILVSYRVKVKLVVSRGGDVSVELPFVLMHPKPHDHIALPRPQSAATHPPTLLPSAVPETDAPVDTNLIEFETNYATDDDIVFEDFARLRLKGLKDEDYDDQFC
# chain 2: DADDVMTKEEQIFLLHRAQAQCEKRLKEVLQRPASIMESDKGWTSASTSGKPRKDKASGKLYPESEEDKEAPTGSRYRGRPCLPEWDHILCWPLGAPGEVVAVPCPDYIYDFNHKGHAYRRCDRNGSWELVPGHNRTWANYSECVKFLTNETREREVFDRLGMIYTVGYSVSLASLTVAVLILAYFRRLHCTRNYIHMHLFLSFMLRAVSIFVKDAVLYSGATLDEAERLTEEELRAIAQAPPPPATAAAGYAGCRVAVTFFLYFLATNYYWILVEGLYLHSLIFMAFFSEKKYLWGFTVFGWGLPAVFVAVWVSVRATLANTGCWDLSSGNKKWIIQVPILASIVLNFILFINIVRVLATKLRETNAGRCDTRQQYRKLLKSTLVLMPLFGVHYIVFMATPYTEVSGTLWQVQMHYEMLFNSFQGFFVAIIYCFCNGEVQAEIKKSWSRWTLALDFKRKARSGSSSYSYGPMVSHTSVTNVGPRVGLGLPLSPRLLPTATTNGHPQLPGHAKPGTPALETLETTPPAMAAPKDDGFLNGSCSGLDEEASGPERPPALLQEEWETVM
# B2: PTH1R-WT coupled to a C-terminal HaloTag (parathyroid hormone 1 receptor) [not stated] / β-arrestin2 WT C-terminally fused to Nanoluciferase [not stated] (parent)
# chain 1: MGEKPGTRVFKKSSPNCKLTVYLGKRDFVDHLDKVDPVDGVVLVDPDYLKDRKVFVTLTCAFRYGREDLDVLGLSFRKDLFIANYQAFPPTPNPPRPPTRLQERLLRKLGQHAHPFFFTIPQNLPCSVTLQPGPEDTGKACGVDFEIRAFCAKSLEEKSHKRNSVRLVIRKVQFAPEKPGPQPSAETTRHFLMSDRSLHLEASLDKELYYHGEPLNVNVHVTNNSTKTVKKIKVSVRQYADICLFSTAQYKCPVAQVEQDDQVSPSSTFCKVYTITPLLSNNREKRGLALDGKLKHEDTNLASSTIVKEGANKEVLGILVSYRVKVKLVVSRGGDVSVELPFVLMHPKPHDHIALPRPQSAATHPPTLLPSAVPETDAPVDTNLIEFETNYATDDDIVFEDFARLRLKGLKDEDYDDQFC
# chain 2: B1 chain 2
# B3: PTH1R-WT coupled to a C-terminal HaloTag (parathyroid hormone 1 receptor) [not stated] / β-arrestin1-dFLR (finger-loop region Y63 to K77 deleted) C-terminally fused to Nanoluciferase [not stated] (parent)
# chain 1: MGDKGTRVFKKASPNGKLTVYLGKRDFVDHIDLVDPVDGVVLVDPEYLKERRVYVTLTCAFRDLFVANVQSFPPAPEDKKPLTRLQERLIKKLGEHAYPFTFEIPPNLPCSVTLQPGPEDTGKACGVDYEVKAFCAENLEEKIHKRNSVRLVIRKVQYAPERPGPQPTAETTRQFLMSDKPLHLEASLDKEIYYHGEPISVNVHVTNNTNKTVKKIKISVRQYADICLFNTAQYKCPVAMEEADDTVAPSSTFCKVYTLTPFLANNREKRGLALDGKLKHEDTNLASSTLLREGANREILGIIVSYKVKVKLVVSRGGLLGDLASSDVAVELPFTLMHPKPKEEPPHREVPENETPVDTNLIELDTNDDDIVFEDFARQRLKGMKDDKEEEEDGTGSPQLNNR
# chain 2: B1 chain 2
# B4: PTH1R-WT coupled to a C-terminal HaloTag (parathyroid hormone 1 receptor) [not stated] / β-arrestin1 WT C-terminally fused to Nanoluciferase [not stated] (parent)
# chain 1: MGDKGTRVFKKASPNGKLTVYLGKRDFVDHIDLVDPVDGVVLVDPEYLKERRVYVTLTCAFRYGREDLDVLGLTFRKDLFVANVQSFPPAPEDKKPLTRLQERLIKKLGEHAYPFTFEIPPNLPCSVTLQPGPEDTGKACGVDYEVKAFCAENLEEKIHKRNSVRLVIRKVQYAPERPGPQPTAETTRQFLMSDKPLHLEASLDKEIYYHGEPISVNVHVTNNTNKTVKKIKISVRQYADICLFNTAQYKCPVAMEEADDTVAPSSTFCKVYTLTPFLANNREKRGLALDGKLKHEDTNLASSTLLREGANREILGIIVSYKVKVKLVVSRGGLLGDLASSDVAVELPFTLMHPKPKEEPPHREVPENETPVDTNLIELDTNDDDIVFEDFARQRLKGMKDDKEEEEDGTGSPQLNNR
# chain 2: B1 chain 2
# Variants of: B1
# Experiment: NanoBRET recruitment assay in living cells
# Settings: with β-arrestin2-dFLR (finger-loop region Y64 to K78 deleted) C-terminally fused to Nanoluciferase; HEK-WT + EV; point at the highest PTH(1-34) concentration (about 3 µM); partner is β-arrestin2-dFLR; parent: 1.4; read off a plot
row,Variant,response [fold change]
1,chain 2 S475A T477A S478A T480A,0.95
2,chain 2 S463A S465A S466A S467A S469A,1.4

# Same assay, conditions: with β-arrestin2-dFLR (finger-loop region Y64 to K78 deleted) C-terminally fused to Nanoluciferase; ΔQ-GRK + EV; point at the highest PTH(1-34) concentration (about 3 µM); partner is β-arrestin2-dFLR; parent: 1; read off a plot
row,Variant,response [fold change]
1,chain 2 S475A T477A S478A T480A,0.95
2,chain 2 S463A S465A S466A S467A S469A,1

# Same assay, conditions: with β-arrestin2-dFLR (finger-loop region Y64 to K78 deleted) C-terminally fused to Nanoluciferase; ΔQ-GRK + GRK2; point at the highest PTH(1-34) concentration (about 3 µM); partner is β-arrestin2-dFLR; parent: 1.3; read off a plot
row,Variant,response [fold change]
1,chain 2 S475A T477A S478A T480A,0.95
2,chain 2 S463A S465A S466A S467A S469A,1.3

# Variants of: B2
# Experiment: NanoBRET recruitment assay in living cells
# Settings: with β-arrestin2 WT C-terminally fused to Nanoluciferase; HEK-WT + EV; point at the highest PTH(1-34) concentration (about 3 µM); parent: 7.5; read off a plot
row,Variant,response [fold change]
1,chain 2 S475A T477A S478A T480A,3.4
2,chain 2 S463A S465A S466A S467A S469A,6

# Same assay, conditions: with β-arrestin2 WT C-terminally fused to Nanoluciferase; HEK-WT cells; point at the highest PTH(1-34) concentration (about 3 µM); parent: 7.3; read off a plot
row,Variant,response [fold change]
1,chain 2 S475A T477A S478A T480A,3.4
2,chain 2 S463A S465A S466A S467A S469A,6

# Same assay, conditions: with β-arrestin2 WT C-terminally fused to Nanoluciferase; ΔQ-GRK + EV; point at the highest PTH(1-34) concentration (about 3 µM); parent: 1.7; read off a plot
row,Variant,response [fold change]
1,chain 2 S475A T477A S478A T480A,1.9
2,chain 2 S463A S465A S466A S467A S469A,1.8

# Same assay, conditions: with β-arrestin2 WT C-terminally fused to Nanoluciferase; ΔQ-GRK + GRK2; point at the highest PTH(1-34) concentration (about 3 µM); parent: 5; read off a plot
row,Variant,response [fold change]
1,chain 2 S475A T477A S478A T480A,3.2
2,chain 2 S463A S465A S466A S467A S469A,4.8

# Variants of: B3
# Experiment: NanoBRET recruitment assay in living cells
# Settings: with β-arrestin1-dFLR (finger-loop region Y63 to K77 deleted) C-terminally fused to Nanoluciferase; HEK-WT + EV; point at the highest PTH(1-34) concentration (about 3 µM); partner is β-arrestin1-dFLR; parent: 2.8; read off a plot
row,Variant,response [fold change]
1,chain 2 S463A S465A S466A S467A S469A,2.6
2,chain 2 S475A T477A S478A T480A,1.1

# Same assay, conditions: with β-arrestin1-dFLR (finger-loop region Y63 to K77 deleted) C-terminally fused to Nanoluciferase; ΔQ-GRK + EV; point at the highest PTH(1-34) concentration (about 3 µM); partner is β-arrestin1-dFLR; parent: 1; read off a plot
row,Variant,response [fold change]
1,chain 2 S463A S465A S466A S467A S469A,1
2,chain 2 S475A T477A S478A T480A,1

# Same assay, conditions: with β-arrestin1-dFLR (finger-loop region Y63 to K77 deleted) C-terminally fused to Nanoluciferase; ΔQ-GRK + GRK2; point at the highest PTH(1-34) concentration (about 3 µM); partner is β-arrestin1-dFLR; parent: 2.3; read off a plot
row,Variant,response [fold change]
1,chain 2 S463A S465A S466A S467A S469A,2.1
2,chain 2 S475A T477A S478A T480A,1.1

# Variants of: B4
# Experiment: NanoBRET recruitment assay in living cells
# Settings: with β-arrestin1 WT C-terminally fused to Nanoluciferase; HEK-WT + EV; point at the highest PTH(1-34) concentration (about 3 µM); parent: 5.9; read off a plot
row,Variant,response [fold change]
1,chain 2 S463A S465A S466A S467A S469A,5.8
2,chain 2 S475A T477A S478A T480A,2.9

# Same assay, conditions: with β-arrestin1 WT C-terminally fused to Nanoluciferase; HEK-WT cells; point at the highest PTH(1-34) concentration (about 3 µM); parent: 5.9; read off a plot
row,Variant,response [fold change]
1,chain 2 S463A S465A S466A S467A S469A,5.9
2,chain 2 S475A T477A S478A T480A,2.9

# Same assay, conditions: with β-arrestin1 WT C-terminally fused to Nanoluciferase; ΔQ-GRK + EV; point at the highest PTH(1-34) concentration (about 3 µM); parent: 1.4; read off a plot
row,Variant,response [fold change]
1,chain 2 S463A S465A S466A S467A S469A,1.7
2,chain 2 S475A T477A S478A T480A,2

# Same assay, conditions: with β-arrestin1 WT C-terminally fused to Nanoluciferase; ΔQ-GRK + GRK2; point at the highest PTH(1-34) concentration (about 3 µM); parent: 5.3; read off a plot
row,Variant,response [fold change]
1,chain 2 S463A S465A S466A S467A S469A,6.3
2,chain 2 S475A T477A S478A T480A,2.7
